Measurements taken from patent publication US8709981B2, “Isolated Australian coral reef fluorescent proteins and cell-based kinase or phosphatase platforms for cancer drug development” (priority 2009, dated 2014).

How the values were obtained:
[1] = Fluorescence emission spectrum compared to eGFP; format: physicochemical; settings: samples normalized by absorption at 480 nm
From the text: (§1) The fluorescence emission of a disclosed fluorescent polypeptide having the amino acid sequence set forth in SEQ ID NO: 24 was compared to eGFP. eGFP is one of the brightest fluorescent proteins created to date. Both the disclosed fluorescent polypeptide having the amino acid sequence set forth in SEQ ID NO: 24 and eGFP were cloned into a modified pET-HT vector with a TEV-cleavable His-tag, expressed in BL21-DE3 E. coli, and purified via Ni-NTA resin. The concentration of each sample was normalized by the intensity of the respective absorption spectrum at 480 nm.
(§2) Fluorescence correlation spectroscopy (FCS) measurements (not shown) also indicated the protein having the sequence set forth in SEQ ID NO: 24 is monomeric and about 1.4 times as bright as eGFP. Additionally, as FIG. 6 clearly indicates, the peak emission intensity of the disclosed fluorescent polypeptide having the amino acid sequence set forth in SEQ ID NO: 24 is about 50% greater than that of eGFP.

[2] = Fluorescence correlation spectroscopy (FCS) compared to eGFP; format: physicochemical
From the text: as §1, §2

[3] = test system: PKA, PKC, MAPK, cdc2, Akt1, Src; assay: Western blot / SDS-PAGE analysis of phosphorylation; format: biochemical
Protocol: Equal quantities of PhosFluor or eGFP incubated with either PKC or Src for the indicated times (in hours) were resolved on 10% SDS-PAGE gels and immunoblotted to antibodies that reveal total protein (a polyhistidine monoclonal antibody) or phospho-tyrosine. M designates the position of the monomeric form of fluorescent protein while P designates the position of phosphorylated forms of the protein that have undergone a motility shift due to increased negative charge.
Phosphorylation is known to increase the negative charge on proteins, which commonly results in an upward shift in the apparent molecular weight of the protein when resolved by SDS-PAGE (sodium dodecyl sulfate-polyacrylamide gel electrophoresis).

[4] = Fluorescence intensity at different pH (Tris buffer); format: physicochemical; settings: from pH 6.3 to pH 8.5
From the text: A panel of fluorescent proteins was subjected to different pH conditions.

alkaline phosphatase = settings: incubated with alkaline phosphatase
Protocol: (§3) B. Equal quantities of the recombinant PhosFluor or eGFP were subjected to phosphorylation by the indicated protein kinases or to dephosphorylation with alkaline phosphatase (Alk Phos). Fluorescence intensity (representing the change in emission of a part of the emission spectrum compared to the value at 0 hours) was measured over time during the reaction.
(§4) To determine if the fluorescence of PhosFluor could be modulated by phosphorylation, recombinant PhosFluor was incubated with different protein kinases and fluorescence was monitored (FIG. 9B).

protein kinases = assay: Fluorescence intensity of recombinant protein incubated with protein kinases; format: biochemical
Protocol: as §3, §4

[5] = test system: protein kinases (PKA, PKC, Akt1, CamKII, MAPK); assay: Excitation and emission spectra after phosphorylation; format: biochemical
From the text: FIG. 11 discloses that phosphorylation of PhosFluor alters its spectral properties. The excitation and emission spectra of PhosFluor and eGFP are depicted under control conditions (no kinase) and after phosphorylation by the indicated kinases. The excitation and emission spectra for eGFP are all superimposed under a single curve, while phosphorylation of PhosFluor alters both spectra compared to control conditions.
The excitation and emission spectra of PhosFluor were also obtained under control conditions and when phosphorylated (FIG. 10A). […] A marked shift in the emission spectrum of PhosFluor was observed when this molecule was incubated with PKA, PKC or Akt1 (FIG. 10B). […] These observations are highly significant because changes in the emission spectrum permits ratiometric measurements to be carried out, a highly robust method for quantitating spectral change in a fluorophore. Moreover, the effects reported here were carried out on the unmodified native PhosFluor protein. Enhanced effects would be expected if this protein is optimized for phosphorylation and/or expression as disclosed herein.

B1: SEQ ID NO: 24: disclosed fluorescent polypeptide having the amino acid sequence set forth in SEQ ID NO: 24 (protein, listed as Lobophyllia hemprichii)
chain: MNVIKTDMKMKLRMVGAVNGHKFEIAGEGKGKPFEGKQTMNLEVLVGGPLPFAFDILTTVFDYGNRVFVKYPRDIADYFKQSFPEGFSWERSMAYEDGGICLATNNITLMKGDCFLYEIRFDGVNFPANSPVLQKKTV
[1]
  peak emission intensity greater than that of eGFP: about 50%
[2]
  oligomeric state: monomeric
[2]; as bright as eGFP
  brightness relative to eGFP: about 1.4 times

B2: PhosFluor: fluorescent protein having the amino acid sequence set forth in SEQ ID NO: 10, isolated from Scleractinia (protein)
chain: MSAHIKPNMKIKLRMEGDVNGHPFVITGEGSGKPYEGTHAIDLKVKEGGPLPFAYDILTAAFQYGNRAFTKYPADIPDYFKQSFPDGYCWERSMVFEDQGICVVKSVISLDKKEPDCFNYDIRFYGVNFPATGPVMKKKTVKWEPSTQTMYERDGVLVGDVNMALLLEGGGHHRCDFKSTYRAKGVVLNMPGNHYVDHRIEIIHHDKGYNSVTVHESAEARHCSLPSKAK
modifications: Scleractinia sp
[3]; PKC
  SDS-PAGE mobility shift upon phosphorylation by PKC: multiple higher molecular weight species
[3]; PKC or Src, immunoblot
  substrate for PKC and Src: avid substrate
[3]; Western blot, by PKA, PKC, MAPK, cdc2 and Akt1
  phosphorylation of serine and threonine sites: phosphorylated
[4]
  increase in brightness: > 100%
Alkaline phosphatase
  increase in fluorescence intensity over time with alkaline phosphatase: virtually abolished the increase in fluorescence intensity
Protein kinases; cdc2 and MAPK, data not shown
  fluorescence intensity when incubated with cdc2 and MAPK: increased above background levels
Protein kinases; no added protein kinase
  fluorescence intensity in the absence of added protein kinase: increased to a lesser degree
Protein kinases; recombinant protein incubated with kinases
  fluorescence intensity when treated with various protein kinases: dramatic increase in fluorescence intensity
[5]; different protein kinases, including Akt1
  excitation spectrum upon phosphorylation: dramatically altered
[5]; incubated with PKA, PKC or Akt1
  emission spectrum upon phosphorylation: marked shift
